Laboratory results published in US20190367592A1 (AC IMMUNE, published 2019).
Changes are numbered by the printed parent chain.

B1: hu94B2.v105 (94B2.HC1 + 94B2.LC13) (antibody, IgG1, V domains shown)
VH: EVQLVQSGAEVKKPGASVKVSCKASGYSLTGYTMNWVRQAPGQGLEWIGLISPYNGVTSYNQKFKGRATLTVDKSTSTAYLELSSLRSEDTAVYYCARQGAYWGQGTLVTVSS
VL: DIVMTQTPLSLPVTPGQPASISCKSSQSLLDSDGKTYLNWLLQKPGQSPQRLIYLVSKLDSGVPDRFSGSGSGTDFTLKISRVEAEDVGVYYCWQGTHFPWTFGQGTKVEIK
notes: also called hu94B2 HC1 + LC13
B2: hu125B11.v17 (HC3+LC1) (antibody, IgG1, V domains shown)
VH: EVQLVESGGGLVQPGGSLRLSCAASRFIFSNYWMNWVRQAPGKGLEWVAQIRLKSDNYATHYAESVKGRFTISRDDSKNTLYLQMNSLRAEDTAVYYCTGGTTYWGQGTLVTVSS
VL: DIQMTQSPSSLSASVGDRVTITCKASQNVGTAVAWYQQKPGKSPKLLIYSASIRYTGVPSRFSGSGSGTDFTLTISSLQPEDFATYFCQQFRTYPYTFGQGTKVEIK
notes: also called hu125B11 HC3 + 125B11 LC1
B3: hu125B11.v26 (HC4+LC2) (antibody, IgG1, V domains shown)
VH: B2 VH with D76N
VL: B2 VL with S43A
notes: also called hu125B11 HC4 + 125B11 LC2
B4: hu125B11.v28 (HC4+LC4) (antibody, IgG1, V domains shown)
VH: B2 VH with D76N
VL: B2 VL with S43A, F87Y
notes: also called hu125B11 HC4 + 125B11 LC4
B5: hu37D3-H9.v1 hIgG4.S228P (antibody)
heavy: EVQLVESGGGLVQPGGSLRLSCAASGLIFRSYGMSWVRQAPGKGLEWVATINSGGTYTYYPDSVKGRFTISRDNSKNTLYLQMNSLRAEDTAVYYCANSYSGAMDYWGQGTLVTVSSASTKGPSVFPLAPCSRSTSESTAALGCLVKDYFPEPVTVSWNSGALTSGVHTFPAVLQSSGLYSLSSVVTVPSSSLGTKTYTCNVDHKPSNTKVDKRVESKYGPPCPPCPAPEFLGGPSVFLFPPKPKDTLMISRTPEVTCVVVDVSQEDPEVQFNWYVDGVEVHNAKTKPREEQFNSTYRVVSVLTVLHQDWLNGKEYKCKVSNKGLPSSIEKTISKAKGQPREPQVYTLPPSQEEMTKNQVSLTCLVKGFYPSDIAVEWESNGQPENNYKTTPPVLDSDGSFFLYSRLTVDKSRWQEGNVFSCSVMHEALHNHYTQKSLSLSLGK
light: EDQLTQSPSSLSASVGDRVTITCRSSQSIVHSNGNTYFEWYQQKPGKSPKLLIYKVSNRFSGVPSRFSGSGSGTDFTLTISSLQPEDFATYYCFQGSLVPWTFGQGTKVEIKRTVAAPSVFIFPPSDEQLKSGTASVVCLLNNFYPREAKVQWKVDNALQSGNSQESVTEQDSKDSTYSLSSTLTLSKADYEKHKVYACEVTHQGLSSPVTKSFNRGEC
notes: also called hu37D3.v1 hIgG4
B6: hu37D3-H9.v28.A4 hIgG1 (antibody, V domains shown)
VH: EVQLVESGGGLVQPGGSLRLSCAASGLIFRSYGMSWVRQAPGKGLEWVATINSGGTYTYYPDSVKGRFTISRDNSKNTLYLQMNSLRAEDTAVYYCANSYSGAMDYWGQGTLVTVSS
VL: DDVLTQTPLSLPVTPGQPASISCRSSQSIVHSNGNTYLEWYLQKPGQSPQLLIYKVSNRFSGVPDRFSGSGSGTDFTLKISRVEAEDVGVYYCFQGSLVPWTFGQGTKVEIK
notes: human IgG1, kappa

Tests used:
[1] = target: T1, recombinant human Tau monomer, 2N4R isoform (amino acids 2-441) (human, UniProt P10636-8 2-441); assay: SPR high-resolution kinetics, hIgG1
T1 construct: range 2-441; N-terminal His-tag removed with TEV protease; also called monomeric Tau

[2] = target: T1, recombinant human Tau monomer, 2N4R …; assay: SPR screen, hIgG captured, Tau monomer analyte
From the text: (§1) Antibody 125B11-H3 was humanized onto VH3 and Vκ1 consensus frameworks. The heavy chain graft included murine residues at position 78 (Kabat numbering system). The Vκ1 graft included murine residues in framework positions 43 and 87. The light chain of 113F5-F7 was also humanized onto the Vκ1 framework, with additional murine residues at framework positions 43 and 87. Humanized variant heavy chains (125B11) and light chains (125B11 and 113F5-F7) were co-transfected in multiple combinations and purified in 96-well format as described above. Humanized variants were then screened for affinity for human Tau monomer using the Biacore human IgG capture kit, a Series S CM5 chip and a Biacore T200 instrument. Antibodies were diluted to 2 μg/ml and captured for 15 seconds at 10 μl/min. Association and dissociation of 0, 100 and 500 nM human Tau monomer in HBSP was monitored for 180s and 300s respectively at a flow rate of 40 μl/min. A 1:1 binding model was applied to the results (Table 9).
Variants hu125B11.v17 (HC3+LC1), hu125B11.v26 (HC4+LC2) and hu125B 11.v28 (HC4+LC4) were selected for high-resolution kinetic analysis based on the affinity screen (Table 10). Antibody 94B2-C1 was humanized onto VH1 and Vx2 frameworks. The heavy chain graft also included murine residues at position 28, 29, 67, 69, 71, and 73 (Kabat numbering system). The Vκ2 graft also included murine residues in framework positions 2, 36, and 46. […] Variant hu94B2.v105 (heavy chain variant 94B2.HCl, light chain variant 94B2.LC13) was selected for detailed SPR characterization (Table 11).

[3] = target: T1, recombinant human Tau monomer, 2N4R …; assay: SPR screen, hIgG captured, Tau monomer analyte; remark: listed apart in the source
From the text: as §1

[4] = target: T1, recombinant human Tau monomer, 2N4R …; assay: SPR, hIgG captured, Tau monomer analyte, 1:1 fit
Method: Affinity of selected antibodies was assessed at 25° C. using a Biacore T200 instrument, the GE Biacore human IgG capture kit and a CM5 Series S chip. The hIgG were diluted to 0.25 μg/ml in 10 mM HEPES pH7.4, 150 mM NaCl, 0.05% Tween 20 (running buffer, HBSP) and captured at a flow rate of 10 μl/min for 150 seconds. Kinetic data was collected for Human Tau monomer injected at concentrations of 0, 0.4, 1.2, 3.7, 11, 11, 33 and 100 nM in HBSP, using a flow rate of 30 μl/min, a 300 second association phase and a 600 second dissociation phase. Between cycles the surface was regenerated using two sequential 30 second injections of 3M MgCl at 10 μl/min. Data was fit to a 1:1 binding model (Table 15).

[5] = target: T1, recombinant human Tau monomer, 2N4R …; assay: SPR single-cycle, human Fab capture kit, Tau monomer analyte; mean ± range, n=2
Method: Affinity of the humanized antibody variants was measured at 25° C. using a Biacore T200 instrument, the GE Biacore human FAb capture kit, and a CM5 Series S chip. Antibodies were diluted to 1 μg/ml in HBSP (10 mM HEPES pH7.4, 150 mM NaCl, 0.05% Tween 20) and captured at a flow rate of 10 μl/min for 180 seconds. Kinetic data were collected for human Tau monomer injected at 1.2, 3.7, 11, 33 and 100 nM in HBSP using the Single Cycle Kinetics methodology and a flow rate of 30 μl/min. Each concentration of Tau monomer was injected for a period of 3 minutes and dissociation was monitored for ten minutes. Between cycles, the surface was regenerated with two sequential one-minute injections of 10 mM glycine pH2.1. Data was fit to a 1:1 binding model using BIAEvaluation software. Each antibody was analyzed twice within the experiment; data in Table 22 are shown as mean±range.

T1 sequence (P10636 other isoform, or with tags, fused parts or gaps limits assumed): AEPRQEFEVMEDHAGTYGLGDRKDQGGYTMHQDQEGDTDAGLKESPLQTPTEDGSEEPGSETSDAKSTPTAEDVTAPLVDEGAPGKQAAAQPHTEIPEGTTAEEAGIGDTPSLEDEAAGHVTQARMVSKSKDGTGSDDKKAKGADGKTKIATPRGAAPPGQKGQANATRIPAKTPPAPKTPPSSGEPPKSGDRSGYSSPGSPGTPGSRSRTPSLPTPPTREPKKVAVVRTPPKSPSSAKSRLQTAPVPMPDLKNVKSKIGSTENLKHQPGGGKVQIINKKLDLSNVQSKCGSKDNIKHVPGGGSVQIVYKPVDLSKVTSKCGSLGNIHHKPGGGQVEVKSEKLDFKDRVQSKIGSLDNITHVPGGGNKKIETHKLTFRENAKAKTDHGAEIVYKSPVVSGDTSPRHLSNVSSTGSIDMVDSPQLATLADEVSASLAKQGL

Binder | Kd [1] [nM] | koff [1] [s⁻¹] | kon [1] [M⁻¹ s⁻¹] | Kd [2] [nM] | Kd [3] [nM] | Kd [4] [nM] | koff [4] [s⁻¹] | kon [4] [M⁻¹ s⁻¹] | Kd [5] [nM] | koff [5] [s⁻¹] | kon [5] [M⁻¹ s⁻¹]
B1 | 3.7 | 0.0003 | 80000 | 4.1 | – | – | – | – | – | – | –
B2 | 10.5 | 0.0008 | 80000 | – | 18 | – | – | – | – | – | –
B3 | 9.5 | 0.0007 | 70000 | – | 14 | – | – | – | – | – | –
B4 | 10.2 | 0.0007 | 70000 | – | 17 | – | – | – | – | – | –
B5 | – | – | – | – | – | 2 | 0.0013 | 670000 | 2.3 | 0.001 | 600000
B6 | – | – | – | – | – | 1.5 | 0.0011 | 690000 | – | – | –
